Laboratory results published in paper doi:10.1101/655696.
Each block holds one substance with its values, some of them ahead of it.

Key:
[1] = molecular target: mature 30S ribosomal subunit (MRE600) (E. coli (endogenous in MRE600)) (UniProt P0AG67); test: ultrafiltration assay
[2] = molecular target: pre-30S particles from the ΔrbfA strain (BX41) (E. coli (endogenous in BX41)); test: ultrafiltration assay
[3] = molecular target: mature 30S ribosomal subunit (MRE600) (E. coli (endogenous in MRE600)) (UniProt P0AG67); test: co-sedimentation + other: ultrafiltration assay
[4] = molecular target: mature 30S ribosomal subunit (MRE600) (E. coli (endogenous in MRE600)) (UniProt P0AG67); test: co-sedimentation

average fold change in bound IF3 over background [1]: 2.2 fold
average fold change in bound IF3 over background [2]: 1.9 fold
Substance: Cy3-IF3 (from UniProt P0A707 1-180) (natural protein)

t1/2 of the complex [3]: > 30 min
half-life of the complex [2]: > 60 min
Substance: Cy5-RbfA (ribosome binding factor A labelled with Cy5 at position 2) (from UniProt P0A7G2 1-133) (natural protein)

decrease of Cy5-RbfA fluorescence in the pelleted fraction with 4 µM IF3 [4]: > 80%
Substance: Initiation factor 3 (IF3), wild type (from UniProt P0A707 1-180) (natural protein)
